The text below walks through data of patent US20260000781A1 (CIDARA THERAPEUTICS, published 2026).

Assay [1] deals with T1, human CD73 expressed on cells (human, UniProt P21589 27-549).
T1 sequence (looked up): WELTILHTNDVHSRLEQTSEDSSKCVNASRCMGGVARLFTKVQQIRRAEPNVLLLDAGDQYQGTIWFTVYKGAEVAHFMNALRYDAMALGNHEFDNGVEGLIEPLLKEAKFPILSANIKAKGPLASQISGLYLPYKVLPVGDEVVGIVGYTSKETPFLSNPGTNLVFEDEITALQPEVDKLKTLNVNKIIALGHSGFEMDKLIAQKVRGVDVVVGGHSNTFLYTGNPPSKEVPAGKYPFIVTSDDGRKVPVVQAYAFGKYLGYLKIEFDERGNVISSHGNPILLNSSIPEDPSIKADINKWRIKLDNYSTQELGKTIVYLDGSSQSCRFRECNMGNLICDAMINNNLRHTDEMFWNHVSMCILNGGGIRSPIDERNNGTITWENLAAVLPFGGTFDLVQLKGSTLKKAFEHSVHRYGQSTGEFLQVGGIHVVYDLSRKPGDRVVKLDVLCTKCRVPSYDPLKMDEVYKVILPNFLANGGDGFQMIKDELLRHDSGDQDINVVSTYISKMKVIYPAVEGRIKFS
Briefly: cell-based or functional assay.

The target of assay [2] is T1, human CD73 expressed on cells. Kind of assay: cell-based or functional assay. The source holds these as a separate data set.
For assay [3] the target is unchanged. Kind of assay: cell-based or functional assay. This is another data set of the same source.
Assay [4] deals with T2, mouse CD73 expressed on cells (mouse, UniProt Q61503 29-551).
T2 sequence (looked up): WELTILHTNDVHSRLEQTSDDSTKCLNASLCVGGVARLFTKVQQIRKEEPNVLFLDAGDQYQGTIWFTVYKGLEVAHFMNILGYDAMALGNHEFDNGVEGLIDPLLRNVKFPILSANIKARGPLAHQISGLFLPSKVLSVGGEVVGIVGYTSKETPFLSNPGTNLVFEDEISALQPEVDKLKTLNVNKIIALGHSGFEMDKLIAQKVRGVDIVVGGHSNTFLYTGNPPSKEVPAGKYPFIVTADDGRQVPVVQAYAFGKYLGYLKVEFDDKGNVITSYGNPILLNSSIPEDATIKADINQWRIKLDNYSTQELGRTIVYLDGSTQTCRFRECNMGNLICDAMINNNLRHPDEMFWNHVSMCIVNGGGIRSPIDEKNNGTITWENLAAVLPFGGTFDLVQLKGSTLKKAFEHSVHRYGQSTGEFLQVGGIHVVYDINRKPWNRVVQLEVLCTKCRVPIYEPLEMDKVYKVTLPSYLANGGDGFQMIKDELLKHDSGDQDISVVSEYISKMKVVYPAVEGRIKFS
Briefly: cell-based or functional assay.

The target in assay [5] is T1, human CD73 expressed on cells. Kind of assay: cell-based or functional assay. The source holds these as a separate data set.
Assay [6] has the same target. Briefly: cell-based or functional assay. The source holds these as a separate data set.
The target is the same in assay [7]. Kind of assay: cell-based or functional assay. The source holds these as a separate data set.
The target is the same in assay [8]. Kind of assay: cell-based or functional assay. The source holds these as a separate data set.
For assay [9] the target is unchanged. Kind of assay: cell-based or functional assay. This is another data set of the same source.
Assay [10] deals with T3, Enzymatically active His-tagged human CD73/NT5E protein (human, UniProt P21589 27-547).
T3 construct: Bought protein; also called human CD73/NT5E protein, His-tag (Acro Biosystems cat CD3-H52H7); not shown: His-tag
T3 sequence (looked up): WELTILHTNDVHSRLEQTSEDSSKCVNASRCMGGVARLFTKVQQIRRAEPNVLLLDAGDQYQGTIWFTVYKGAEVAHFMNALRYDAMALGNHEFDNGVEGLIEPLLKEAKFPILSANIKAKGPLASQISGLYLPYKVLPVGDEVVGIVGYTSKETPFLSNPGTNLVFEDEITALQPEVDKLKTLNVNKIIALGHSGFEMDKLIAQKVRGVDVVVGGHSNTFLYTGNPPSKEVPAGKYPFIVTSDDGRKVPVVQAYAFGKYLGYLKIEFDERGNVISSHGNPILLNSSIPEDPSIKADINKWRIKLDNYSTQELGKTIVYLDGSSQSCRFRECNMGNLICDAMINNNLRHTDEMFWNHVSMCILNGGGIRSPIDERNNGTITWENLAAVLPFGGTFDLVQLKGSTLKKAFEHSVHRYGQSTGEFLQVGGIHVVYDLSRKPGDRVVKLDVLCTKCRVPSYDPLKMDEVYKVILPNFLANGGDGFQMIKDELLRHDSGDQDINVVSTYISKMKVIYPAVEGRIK
Kind of assay: SPR (Biacore 8K), His-tagged human CD73 captured by anti-His antibody, mAb as analyte.

Assay [11] deals with T2, mouse CD73 expressed on cells. Kind of assay: cell-based or functional assay. The source holds these as a separate data set.
Assay [12] has as its target T1, human CD73 expressed on cells. Kind of assay: cell-based or functional assay. The source holds these as a separate data set.

A value given as a limit tells only on which side of the number the result lay.

B1: Oleclumab (antibody, V domains shown)
VH: EVQLLESGGGLVQPGGSLRLSCAASGFTFSSYAYSWVRQAPGKGLEWVSAISGSGGRTYYADSVKGRFTISRDNSKNTLYLQMNSLRAEDTAVYYCARLGYGRVDEWGRGTLVTVSS
VL: QSVLTQPPSASGTPGQRVTISCSGSLSNIGRNPVNWYQQLPGTAPKLLIYLDNLRLSGVPDRFSGSKSGTSASLAISGLQSEDEADYYCATWDDSHPGWTFGGGTKLTVL
For B1, in assay [1], the “PBMC activation, CD4+CD25+ EC50 [nM] (median, n = 3)” value is above 1000 nM; the “PBMC activation, CD8+CD25+ EC50 [nM] (median, n = 3)” value was above 1000 nM; the “PBMC activation, CD8+Granzyme B+ EC50 [nM] (median, n = 3)” value is above 1000 nM. In [2], the “PBMC activation, CD8+CD25+ EC50 [nM]” value is above 1000 nM and the “PBMC activation, CD8+granzyme B+ EC50 [nM]” value was above 1000 nM. For the same molecule, in assay [3], the “Cell-based CD73 inhibition IC50 (nM), MDA-MB-231 cells” value was determined as 0.67 nM. In [4], the “CD73 inhibition, mouse 4T1 cells, 3 h IC50 [nM]” value is above 100 nM and the “CD73 inhibition, mouse 4T1 cells, 24 h IC50 [nM]” value is above 100 nM. Further, the “Cell internalization EC50 (nM), Fab-ZAP saporin assay, MDA-MB-231” value in assay [5] worked out at 0.02 nM. In assay [6], the “inhibition of adenosine production (AMP conversion by CellTiter-Glo), human PBMCs, EC50 [nM]” value worked out at 288 nM. Moreover, in [7], the “CD73 inhibition, human PBMCs, 3 h median IC50 [nM]” value was 7.26 nM and the “CD73 inhibition, human PBMCs, 24 h median IC50 [nM]” value is 89.4 nM. In [8], the “CD73 inhibition, human PBMCs, 3 h IC50 [nM]” value was found to be 0.56 nM and the “CD73 inhibition, human PBMCs, 24 h IC50 [nM]” value was above 100 nM. Also, the “cell-based CD73 enzyme inhibition IC50 (MDA-MB-231 cells)” value in [9] was 0.11 nM. The Kd (usually the equilibrium constant for the complex coming apart) in [10] worked out at 0.527 nM. Further, in assay [11], the “CD73 inhibition, mouse EMT6 cells, 3 h IC50 [nM]” value worked out at 5.68 nM and the “CD73 inhibition, mouse EMT6 cells, 24 h IC50 [nM]” value was above 100 nM. Also, the “PBMC activation (CD25+), 30 µM AMP EC50 [nM]” value in [12] is above 1000 nM.

B2: Mupadolimab (antibody, V domains shown)
VH: QVQLVQSGAEVEKPGASVKVSCKASGYTFTSYWITWVRQAPGQGLEWMGDIYPGSGNTNYNEKFKTRVTITADKSTSTAYMELSSLRSEDTAVYYCAKEGGLTTEDYALDYWGQGTLVTVSS
VL: EIVLTQSPATLSLSPGERATLSCRASKNVSTSGYSYMHWYQQKPGQAPRLLIYLASNLESGIPPRFSGSGYGTDFTLTINNIESEDAAYYFCQHSRELPFTFGQGTKVEIK
B2: in [4], the “CD73 inhibition, mouse 4T1 cells, 3 h IC50 [nM]” value is above 100 nM and the “CD73 inhibition, mouse 4T1 cells, 24 h IC50 [nM]” value was above 100 nM. This molecule showed a Kd in assay [10] of 123 nM. Moreover, in assay [11], the “CD73 inhibition, mouse EMT6 cells, 3 h IC50 [nM]” value is above 100 nM and the “CD73 inhibition, mouse EMT6 cells, 24 h IC50 [nM]” value is above 100 nM.
